Consider 1 molecule from patent US9549967B2, “Regulation of sodium channels by PLUNC proteins” (The University of North Carolina at Chapel Hill, priority 2009, dated 2017).

The target of this assay is T1, ENaC (Homo sapiens, UniProt P37088+P51168+P51170).
T1 construct: endogenous in cells; host or cells: primary human bronchial epithelial cultures
T1 sequence (P37088 1-669): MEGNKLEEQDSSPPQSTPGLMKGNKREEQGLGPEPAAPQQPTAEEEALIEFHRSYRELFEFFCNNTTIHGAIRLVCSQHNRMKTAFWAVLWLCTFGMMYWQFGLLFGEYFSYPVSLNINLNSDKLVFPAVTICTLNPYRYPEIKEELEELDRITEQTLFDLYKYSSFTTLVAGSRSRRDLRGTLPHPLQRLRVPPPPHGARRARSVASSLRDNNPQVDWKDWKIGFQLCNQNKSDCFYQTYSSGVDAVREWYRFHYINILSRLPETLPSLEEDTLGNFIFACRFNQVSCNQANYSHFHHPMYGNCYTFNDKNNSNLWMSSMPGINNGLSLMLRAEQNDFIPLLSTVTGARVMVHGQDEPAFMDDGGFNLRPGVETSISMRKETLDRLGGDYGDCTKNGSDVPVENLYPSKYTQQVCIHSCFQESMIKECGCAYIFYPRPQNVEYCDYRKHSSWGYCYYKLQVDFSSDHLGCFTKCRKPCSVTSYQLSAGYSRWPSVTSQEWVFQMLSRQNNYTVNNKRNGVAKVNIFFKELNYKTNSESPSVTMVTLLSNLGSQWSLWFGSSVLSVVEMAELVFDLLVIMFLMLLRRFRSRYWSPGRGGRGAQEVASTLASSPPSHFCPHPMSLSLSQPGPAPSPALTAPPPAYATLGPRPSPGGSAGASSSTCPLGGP
T1 sequence (P51168 1-640): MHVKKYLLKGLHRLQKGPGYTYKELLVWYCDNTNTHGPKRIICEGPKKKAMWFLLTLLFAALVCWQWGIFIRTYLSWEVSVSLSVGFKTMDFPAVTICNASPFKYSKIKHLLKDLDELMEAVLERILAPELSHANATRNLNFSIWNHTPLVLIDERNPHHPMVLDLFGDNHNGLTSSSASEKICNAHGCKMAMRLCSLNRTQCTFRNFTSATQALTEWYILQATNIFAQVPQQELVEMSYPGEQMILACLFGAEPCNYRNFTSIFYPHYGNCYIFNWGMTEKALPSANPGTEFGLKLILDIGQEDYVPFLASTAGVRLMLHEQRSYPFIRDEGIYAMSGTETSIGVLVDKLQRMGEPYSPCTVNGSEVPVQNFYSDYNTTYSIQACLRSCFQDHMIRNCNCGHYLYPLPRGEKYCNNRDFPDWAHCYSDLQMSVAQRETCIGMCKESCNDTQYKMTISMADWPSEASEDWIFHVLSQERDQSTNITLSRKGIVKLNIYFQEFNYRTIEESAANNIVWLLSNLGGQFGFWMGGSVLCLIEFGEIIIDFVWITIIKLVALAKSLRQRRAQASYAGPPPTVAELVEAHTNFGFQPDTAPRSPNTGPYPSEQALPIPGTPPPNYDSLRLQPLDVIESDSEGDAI
T1 sequence (P51170 1-649): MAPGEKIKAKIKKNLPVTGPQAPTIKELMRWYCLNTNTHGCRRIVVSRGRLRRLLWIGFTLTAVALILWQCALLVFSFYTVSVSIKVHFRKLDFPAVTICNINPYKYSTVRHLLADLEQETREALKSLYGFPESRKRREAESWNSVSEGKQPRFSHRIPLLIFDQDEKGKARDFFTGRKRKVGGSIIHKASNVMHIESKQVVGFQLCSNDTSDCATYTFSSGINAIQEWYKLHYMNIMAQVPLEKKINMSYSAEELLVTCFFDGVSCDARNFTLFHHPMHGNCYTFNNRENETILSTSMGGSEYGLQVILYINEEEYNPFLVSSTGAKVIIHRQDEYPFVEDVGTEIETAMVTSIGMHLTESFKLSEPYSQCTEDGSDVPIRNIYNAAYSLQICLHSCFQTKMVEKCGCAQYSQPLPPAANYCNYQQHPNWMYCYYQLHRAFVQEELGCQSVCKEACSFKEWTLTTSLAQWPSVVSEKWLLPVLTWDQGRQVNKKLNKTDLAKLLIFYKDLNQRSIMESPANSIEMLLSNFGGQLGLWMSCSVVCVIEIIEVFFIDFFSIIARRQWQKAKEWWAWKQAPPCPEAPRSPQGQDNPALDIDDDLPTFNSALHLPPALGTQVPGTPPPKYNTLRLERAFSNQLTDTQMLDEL
Kind of assay: Transepithelial electrical resistance of human bronchial epithelial cultures (EVOM). The following applies: washed cultures; 50 ng/ml SPLUNC1 for 30 min or amiloride; effects not additive. The class given is cell-based. From the text:
Tissue procurement and cell culture: Cells were harvested by enzymatic digestion from human bronchial tissue as previously described under a protocol approved by the UNC School of Medicine IRB (Tarran et al., J. Gen. Physiol. 127:591 (2006)). Human excess donor lungs and excised recipient lungs were obtained at the time of lung transplantation from portions of main stem or […] bronchi and cells were harvested by enzymatic digestion. All preparations were maintained at an air-liquid interface in a modified bronchial epithelial medium and used 2-5 weeks after seeding on 12 mm T-Clear inserts (Corning Costar) coated with human placental type VI collagen (Sigma). Phosphate buffered saline (PBS) was used for washing human bronchial epithelial culture mucosal surfaces.
Microelectrode studies. A single-barreled potential difference-sensing electrode was placed in the airway surface liquid by micromanipulator and used in conjunction with a macroelectrode in the serosal solution to measure transepithelial voltage using a voltmeter (World Precision Instruments). […] Transepithelial resistance was routinely measured using the EVOM system (WPI) as previously described (Tarran et al., J. Gen. Physiol. 127:591 (2006)).

B1: SPLUNC1: human SPLUNC1, 256 amino acid secreted PLUNC protein (SEQ ID NO:1); rSPLUNC1 = V5/6His-tagged protein purified from HEK293 media (protein, listed as Homo sapiens)
chain: MFQTGGLIVFYGLLAQTMAQFGGLPVPLDQTLPLNVNPALPLSPTGLAGSLTNALSNGLLSGGLLGILENLPLLDILKPGGGTSGGLLGGLLGKVTSVIPGLNNIIDIKVTDPQLLELGLVQSPDGHRLYVTIPLGIKLQVNTPLVGASLLRLAVKLDITAEILAVRDKQERIHLVLGDCTHSPGSLQISLLDGLGPLPIQGLLDSLTGILNKVLPELVQGNVCPLVNEVLRGLDITLVHDIVNMLIHGLQFVIKV
modifications: V5/6His tag
notes: rSPLUNC1 = V5/6His-tagged protein purified from HEK293 media
B1: the “increase of the transepithelial electrical resistance” value is on record as about 33%.
